Numbering of substitutions follows the chain as printed.
T1: TREM2 (Homo sapiens, UniProt Q9NZC2)
T1 construct: macrophage cells that endogenously express TREM2; endogenous in cells; host or cells: primary human monocyte-derived macrophages from donor blood
T1 sequence (Q9NZC2 19-230): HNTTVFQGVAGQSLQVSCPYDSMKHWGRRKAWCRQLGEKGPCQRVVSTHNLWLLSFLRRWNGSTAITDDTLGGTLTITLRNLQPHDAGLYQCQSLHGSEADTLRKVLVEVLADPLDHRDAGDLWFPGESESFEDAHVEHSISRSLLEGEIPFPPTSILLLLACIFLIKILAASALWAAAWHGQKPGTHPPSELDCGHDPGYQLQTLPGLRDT

T2: hTREM2 (Homo sapiens, UniProt Q9NZC2)
T2 construct: The ecto domain (residues 19-172) of TREM2 (UniProtKB—Q9NZC2); secretion signal of mouse Ig kappa chain V-III (P01661 aa 1-20) (N); made in house; host or cells: Expi293F
T2 sequence (Q9NZC2 19-172): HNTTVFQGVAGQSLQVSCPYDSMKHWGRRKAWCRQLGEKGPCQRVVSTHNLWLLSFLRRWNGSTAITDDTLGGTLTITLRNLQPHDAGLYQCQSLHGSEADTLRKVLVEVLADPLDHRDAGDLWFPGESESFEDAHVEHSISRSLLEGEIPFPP

B1: 54C2.A1: anti-TREM2 antibody clone; VH SEQ ID NO:22, VL SEQ ID NO:33 (antibody, V domains shown)
VH: QVHLQQSGSELRSPGSSVKLSCKDFDSEVFPIAYMSWVRQKPGHGFEWIGDILPSIGRRIYGVKFEDKATLDADTVSNTAYLELNSLTSEDSAIYYCTRKDYGSLAYWGQGTLVTVSA
VL: DVVMTQTPLSLPVSLGDQASISCRSSQSLVHINGNTYLQWYLQKPGQSPKLLIYKVSNRFSGVPDRFSGSGSGTDFTLRISRVEAEDLGVYFCSQSTHLPYTFGGGTKLEIK
B2: 24B4.A1: anti-TREM2 antibody clone; VH SEQ ID NO:17, VL SEQ ID NO:28 (antibody, V domains shown)
VH: B1 VH with A33S, V38I, R58G, K68R, T98A
VL: B1 VL with Y41F, D75A, R79K, L99V

Assays:
human macrophages [1] = assay: Cell survival assay, human monocyte-derived macrophages, restricted or no M-CSF, CellTiter Glo; assay type: cell-based; conditions: plate coated antibody, 5 ng/mL or no M-CSF, day 6
Description: TREM2 can support microglia energy homeostasis (Ulland et al., Cell, 2017, 170:649-663). […] To understand if enhancing TREM2 activity with TREM2 agonistic antibodies is sufficient for macrophage/microglia survival under limited M-CSF conditions, human macrophage differentiation and survival studies were performed using antibodies as described herein. Human monocytes isolated from peripheral blood were incubated with 5 ng/mL M-CSF in the presence of titrated concentrations of plate coated TREM2 antibodies or isotype controls. On day 6 cell viability was determined by CellTiter Glo viability assay.

soluble TREM2 (sTREM2) = molecular target: T3, soluble TREM2 (sTREM2) (Homo sapiens, UniProt Q9NZC2); assay: Soluble TREM2 (TREM2 shedding) assay in HEK293 TREM2/DAP12 cells; assay type: cell-based; set-up: key to STREM2: NC = no change; −− = reduced sTREM2; ++ = increased sTREM2; conditions: change in sTREM2 levels
T3 construct: expressed in transfected cells
T3 sequence (O43914 22-113 partner, one chain of several): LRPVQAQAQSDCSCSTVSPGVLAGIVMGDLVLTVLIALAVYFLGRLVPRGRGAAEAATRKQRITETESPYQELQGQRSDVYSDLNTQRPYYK
Description: HEK293 cells stably expressing human TREM2 and DAP12 were plated onto 96-well plates pre-coated with poly-D-lysine 4-16 hours prior to antibody treatment. Antibody supernatants or control antibodies were diluted into fresh complete media and added onto cells in triplicate. Cells were incubated with antibody containing media for 18 hours prior to removal of the cell supernatant for assay by TREM2 ELISA. Samples and standards were diluted 1:10 into blocking buffer (3% BSA/TBST) in the assay plate. Briefly, MSD small spot streptavidin plates were coated with biotinylated anti-hTREM2 polyclonal antibody (R&D Systems) overnight at 4° C. or 1 hour at room temperature. Plates were then blocked overnight at 4° C., or 1 hour at room temperature, with blocking buffer, 3% BSA/TBST. Plates were washed three times with TBST in a Biotek plate washer (used for all washes) prior to addition of diluent (blocking buffer) and denatured supernatants from cell culture. A TREM2-His protein diluted in 3% BSA/TBST was used as a standard for absolute quantification. Following 1 hour incubation at room temperature, plates were washed with TBST. The primary detection antibody, sulfo-tagged goat anti-human TREM2 (R&D Systems), diluted in 3% BSA/TBST was added and incubated for 1 hour at room temperature. After washing with TBST, MSD plates were developed using 2×MSD read buffer T, followed by detection using an MSD Sector plate reader. MSD values were converted to absolute quantities of sTREM2 by fitting a standard curve using Prism 7.0 software (Graphpad). Modulation of TREM2 shedding was represented as a ratio to cells cultured with no specific TREM2 antibody in the media.

human macrophages [2] = assay: Signaling pathway Alpha-LISA (pSYK, pERK1/2, pGSK3-beta, pAKT) in human macrophages; assay type: cell-based; conditions: 15 minutes
Description: Anti-TREM2 antibodies were characterized for activation of several signaling pathways, SYK, ERK1/2, AKT and GSK3-beta. Human macrophages differentiated from peripheral monocytes were plated in 96-well plates at a density of 100,000 cell/well. The assay was tested in three conditions (0%, 0.5%, and 10% FBS in the media) for 3 hours. Cells were stimulated with the antibody RS9.F6, 24B4.A1, 8A11.B1, 3D3.A1, 54C2.A1, isotype control IgG2ak, rat anti-TREM2 from R&D, isotype control rat IgG2b, or no treatment (NT) for 15 minutes. The cell lysates were measured for p-Y525/526-SYK, p-T202/Y204-ERK1/2, p-S9-GSK3-beta, and p-S473-AKT using Alpha-LISA kits (Perkin Elmer). […] The antibodies stimulated p-GSK signal moderately (FIG. 6C).

TREM2 [3] = molecular target: T1, TREM2; assay: TREM2 pSyk antagonist assay on human macrophages (antibody pre-incubation, then liposomes); assay type: cell-based; conditions: FIGS. 9C-9D, 30 nM antibody
Description: Human macrophages were differentiated from donor blood using a human monocyte enrichment cocktail (Stem Cell Technologies) and culturing monocytes with human mCSF for five days in macrophage media (RPMI+10% Hyclone FBS+Glutamax+Pen/Strep+non-essential amino acids+sodium pyruvate). On the fifth day, the human macrophages were scraped from the flasks and were re-plated at 100,000 cells/well on a 96-well poly-D-lysine-coated plate in the macrophage media (without mCSF). The cells were incubated for 24 hours to adhere, then the media was removed.
Antibodies diluted in RPMI alone were immediately added to the cells, and allowed to incubate for 30 minutes at 37° C. The antibodies were then removed. Lipid vesicles comprised of 70% DOPC and 30% POPS (made according to the procedure for making vesicles described above) in HBSS were added to the cells and incubated […] at 37° C. The liposome/antibody solution was removed, and 35 μL lysis buffer (Cell Signaling Technologies, CST) was added using the liquid handler. The lysate was then incubated at 4° C. for 30 minutes, then either frozen at −80° C. or immediately carried forward to a pSyk AlphaLISA assay as described above.

TREM2 [4] = molecular target: T4, TREM2 (Homo sapiens, UniProt Q9NZC2); assay: FACS binning on human TREM2-HEK cells (competition with R&D antibody); assay type: binding; conditions: epitope bin, 100 nM antibody
T4 construct: expressed in transfected cells
Description: HEK293 overexpressing human TREM2 (H6) were harvested by 0.05% trypsin and incubated at 37° C. incubator for 2 hours for surface TREM2 recovery. After incubation, cells were washed with 1×PBS and FACS buffer (PBS+0.5% BSA) with human Trustain FcX solution (Biolegend, Cat #422302) was added at a density of 10^6/mL. Cells were seeded at 100,000 cells per well in a 96-well round-bottom and incubated 20 minutes at room temperature. After incubation, anti-TREM2 antibodies (100 nM) were added to the cells and the cells were incubated for 45 minutes on ice. After incubation, rat anti-h/mTREM2-APC antibody (1:100, R&D, Cat # FAB17291A) was added to the cells, and the cells were incubated for 30 minutes on ice. After incubation, cells were washed with FACS buffer three times and resuspended in 10 μL FACS buffer, then analyzed by flow cytometry (BD FACSCanto II, San Jose, Calif.). 20,000 events were obtained for each sample. The ability to compete with R&D antibody was determined by MFI analysis compared to isotype or buffer control wells.
T4 sequence (O43914 22-113 partner, one chain of several): as above

hTREM2 = molecular target: T2, hTREM2; assay: Octet binning (competition with R&D antibody on biotinylated TREM2-His); assay type: binding; conditions: epitope bin, 100 nM
Description: Competition with R&D antibody was done by Octet Red using biotinylated human Trem2-His protein generated in house. Biotinylated human TREM2-His protein was captured on a streptavidin tip, and the tip was then incubated in either 100 nM of R&D Ab or buffer for 3 minutes, followed by incubation for 3 minutes in 100 nM of testing hybridoma. The difference of hybridoma binding curve with or without pre-binding to R&D antibody was analyzed to determine the epitope.

Row | Molecule | survival of human macrophages (human macrophages [1]) | STREM2 (soluble TREM2 (sTREM2)) | p-SYK signal (human macrophages [2]) | pERK1/2 signal (human macrophages [2]) | liposome mediated pSyk signaling after antibody pre-incubation (TREM2 [3]) | Bin by FACS (TREM2 [4]) | Bin by Octet (hTREM2)
1 | B1 | increased the survival | NC | robust | robust | enhanced | 1 | 1
2 | B2 | increased the survival | NC | robust | robust | – | 1 | 1
